Test results published in patent publication US20140242095A1.
Changes are numbered by the printed parent chain.

B1: SIRP29-AM4-1 Fab (Fab, V domains shown)
VH: EVQLVESGGGLVQPGGSLRLSCAASGFNISYYFIHWVRQAPGKGLEWVASVYSSFGYTYYADSVKGRFTISADTSKNTAYLQMNSLRAEDTAVYYCARFTFPGAMDGFFGAYLGSLDYWGQGTLVTVSS
VL: DIQMTQSPSSLSASVGDRVTITCRASQSVSSAVAWYQQKPGKAPKLLIYSASSLYSGVPSRFSGSRSGTDFTLTISSLQPEDFATYYCQQAVNWVGALVTFGQGTKVEIK
B2: SIRP29-AM4-5 Fab (Fab, V domains shown)
VH: B1 VH with A104L, M105F
VL: B1 VL

Target: NOD mouse SIRPα-Fc fusion protein (mouse (NOD strain)) (UniProt P97797)
Assay: competitive ELISA

Row | fold improvement in affinity against parent 29-AM3-35 | Binder
1 | 2 fold | B1
2 | 2 fold | B2
